One block for each binder: values may come before it.
Columns and labels:
[1] = target: T1, OML4-Flag
T1 chain: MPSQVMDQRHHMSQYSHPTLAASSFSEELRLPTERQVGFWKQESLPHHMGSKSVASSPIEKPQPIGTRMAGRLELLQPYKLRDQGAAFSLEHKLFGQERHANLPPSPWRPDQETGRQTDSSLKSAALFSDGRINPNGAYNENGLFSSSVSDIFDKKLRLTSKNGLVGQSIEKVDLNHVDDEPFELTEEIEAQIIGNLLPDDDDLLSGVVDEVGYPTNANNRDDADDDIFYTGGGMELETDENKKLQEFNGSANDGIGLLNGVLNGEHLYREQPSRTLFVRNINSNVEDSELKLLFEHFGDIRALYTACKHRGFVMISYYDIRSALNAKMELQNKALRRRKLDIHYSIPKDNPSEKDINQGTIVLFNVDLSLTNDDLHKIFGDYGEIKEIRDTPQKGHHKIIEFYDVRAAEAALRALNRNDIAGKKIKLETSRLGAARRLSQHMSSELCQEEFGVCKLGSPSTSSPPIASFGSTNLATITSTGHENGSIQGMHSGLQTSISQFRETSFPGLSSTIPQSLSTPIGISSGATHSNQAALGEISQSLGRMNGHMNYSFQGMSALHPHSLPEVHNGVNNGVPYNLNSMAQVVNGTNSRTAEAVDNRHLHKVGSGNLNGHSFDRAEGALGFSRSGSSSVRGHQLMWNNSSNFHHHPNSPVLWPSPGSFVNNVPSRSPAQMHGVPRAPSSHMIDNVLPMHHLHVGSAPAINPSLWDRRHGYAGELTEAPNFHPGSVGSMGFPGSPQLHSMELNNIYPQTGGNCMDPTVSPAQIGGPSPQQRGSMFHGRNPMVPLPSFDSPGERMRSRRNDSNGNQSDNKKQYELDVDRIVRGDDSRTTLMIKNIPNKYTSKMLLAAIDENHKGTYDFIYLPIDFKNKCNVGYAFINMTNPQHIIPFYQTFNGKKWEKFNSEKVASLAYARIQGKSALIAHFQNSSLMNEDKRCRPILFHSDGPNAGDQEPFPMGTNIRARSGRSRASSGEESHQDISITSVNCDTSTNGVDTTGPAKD

[2] = target: OML4S105A, S607A-MBP
[3] = target: cOML4(S607A)-FLAG
[4] = target: T2, cOML4-Flag
T2 chain: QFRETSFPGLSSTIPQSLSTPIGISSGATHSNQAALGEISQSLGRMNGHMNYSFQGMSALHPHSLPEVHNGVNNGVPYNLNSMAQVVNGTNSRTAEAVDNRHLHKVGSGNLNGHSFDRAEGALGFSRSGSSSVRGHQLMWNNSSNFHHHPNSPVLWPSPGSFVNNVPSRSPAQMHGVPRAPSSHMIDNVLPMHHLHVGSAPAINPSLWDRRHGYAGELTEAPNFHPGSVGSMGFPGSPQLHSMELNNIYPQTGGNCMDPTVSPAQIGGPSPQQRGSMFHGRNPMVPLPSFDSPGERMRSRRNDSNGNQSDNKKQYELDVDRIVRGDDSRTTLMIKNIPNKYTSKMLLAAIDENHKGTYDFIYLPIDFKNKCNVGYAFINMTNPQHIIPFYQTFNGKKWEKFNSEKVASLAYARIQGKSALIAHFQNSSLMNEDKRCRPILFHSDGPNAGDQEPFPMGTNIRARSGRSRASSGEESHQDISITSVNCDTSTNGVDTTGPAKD

[5] = target: nOML4(S105A)-FLAG
[6] = target: T3, nOML4-Flag
T3 chain: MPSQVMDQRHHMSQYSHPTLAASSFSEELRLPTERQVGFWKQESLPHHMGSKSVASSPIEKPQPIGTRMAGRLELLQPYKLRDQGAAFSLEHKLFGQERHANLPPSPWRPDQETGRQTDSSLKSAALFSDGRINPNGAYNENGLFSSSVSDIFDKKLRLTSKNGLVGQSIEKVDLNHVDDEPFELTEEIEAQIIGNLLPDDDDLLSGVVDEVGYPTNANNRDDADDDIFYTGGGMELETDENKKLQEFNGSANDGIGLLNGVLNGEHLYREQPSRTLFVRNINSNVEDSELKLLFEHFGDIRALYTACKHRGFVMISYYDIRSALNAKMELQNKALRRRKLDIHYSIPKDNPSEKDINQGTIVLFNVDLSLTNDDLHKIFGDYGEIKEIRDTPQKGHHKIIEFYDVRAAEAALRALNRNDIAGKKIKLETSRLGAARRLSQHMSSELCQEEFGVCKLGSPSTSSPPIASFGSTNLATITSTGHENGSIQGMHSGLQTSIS

[7] = target: T4, OML4-nLUC (rice; firefly, UniProt Q64M78 1-1001); test: firefly luciferase complementation imaging in N. benthamiana leaves
T4 construct: Co-expressed in N. benthamiana leaves; Order of the pieces follows the printed name; not shown: N-terminal fragment of firefly luciferase (nLUC)
T4 sequence: T1 chain
Procedure: (§1) (A) OML4 interacts with GSK2 in yeast cells. Yeast cells were cultured on SD/-Trp-Leu or SD/-Trp-Leu-His-Ade media. (B) OML4 associates with GSK2 in N. benthamiana. OML4-nLUC and GSK2-cLUC were co-expressed in N. benthamiana leaves. Luciferase activity was observed 48 hours after infiltration. The range of luminescence intensity was scaled by the pseudocolor bar. (C) Bimolecular fluorescence complementation (BiFC) assays shown that OML4 interacts with GSK2 in N. benthamiana. OML4-cYFP was coexpressed with GSK2-nYFP in leaves of N. benthamiana. (D) OML4 binds GSK2 in vitro. GSK2-GST was incubated with OML4-MBP and pulled down by OML4-MBP and detected by immunoblot with anti-GST antibody. IB: immunoblot. (E) Interaction between OML4 and GSK2 in the Co-IP assays. Anti-MYC beads were used to immunoprecipitate GSK2-GFP proteins. Gel blots were probed with anti-MYC or anti-GFP antibody. Bars: 50 μm in C.
(§2) We next verified the interaction between OML4 and GSK2 in plant cells using the firefly luciferase (LUC) complementation imaging assay (FIG. 5B). The OML4-nLUC and GSK2-cLUC were transformed and co-expressed in N. benthamiana leaves. […] We then performed bimolecular fluorescence complementation (BiFC) assay to test the interaction between OML4 and GSK2 in plant cells (FIG. 5C). […]

[8] = target: T5, nLUC (firefly, UniProt P08659 1-416 = luciferase); test: firefly luciferase complementation imaging, co-expression in N. benthamiana leaves
T5 construct: Control of the luciferase complementation imaging assay
Procedure: as §1, §2

[9] = target: T6, OML4 full-length protein, yeast two-hybrid bait (OML4 cDNA in pGBKT7) (rice, UniProt Q64M78 1-1001); test: yeast two-hybrid, OML4 full-length protein as bait
T6 construct: Expressed in yeast cells; also called Mei2-Like protein 4; LARGE1; not shown: fusion partner encoded by vector pGBKT7
T6 sequence: T1 chain
Description: To further understand the molecular role of OML4 in grain growth control, we identified its interacting partners through a yeast two-hybrid (Y2H) assay. The OML4 full-length protein was used as the bait. Among several interacting proteins, six different clones corresponding to GSK2 were found in this screen. […] We further confirmed the interaction of OML4 with the full length GSK2 in yeast cells (FIG. 5A).
The cDNA sequences of GSK2 and OML4 were amplified using gene-specific primers (Table S4), and products were fused into the linearized pGADT7 and pGBKT7 vectors, respectively. Yeast two-hybrid analysis was conducted according to the manufacturer's instruction (Clontech, USA).

[10] = target: T7, OML4-cYFP (rice, UniProt Q64M78 1-1001); test: bimolecular fluorescence complementation (BiFC), confocal microscopy
T7 construct: Transiently expressed in N. benthamiana leaves; Order of the pieces follows the printed name; also called OML4 fused with the C-terminus of the yellow fluorescent protein; not shown: C-terminus of the yellow fluorescent protein (cYFP, vector pGBW414-cYFP)
T7 sequence: T1 chain
Procedure: as §1, §2

[11] = target: T8, recombinant OML4
T8 chain: T1 chain

[12] = target: T4, OML4-nLUC; test: firefly luciferase complementation imaging, co-expression in N. benthamiana leaves
Procedure: as §1, §2

T5 sequence (P08659 1-416): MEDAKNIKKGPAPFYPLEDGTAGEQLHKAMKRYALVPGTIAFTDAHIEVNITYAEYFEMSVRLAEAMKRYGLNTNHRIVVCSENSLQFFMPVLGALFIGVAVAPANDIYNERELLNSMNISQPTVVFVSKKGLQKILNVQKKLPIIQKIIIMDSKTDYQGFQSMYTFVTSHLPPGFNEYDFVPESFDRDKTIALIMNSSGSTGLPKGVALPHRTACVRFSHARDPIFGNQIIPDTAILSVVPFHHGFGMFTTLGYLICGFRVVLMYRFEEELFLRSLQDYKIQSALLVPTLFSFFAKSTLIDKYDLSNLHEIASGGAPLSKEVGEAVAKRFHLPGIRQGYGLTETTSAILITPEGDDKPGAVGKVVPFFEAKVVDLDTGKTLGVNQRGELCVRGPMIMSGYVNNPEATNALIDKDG

B1: GSK2-GST (protein)
chain: MDQPAPAPEPMLLDAQPPAAVACDKKQQEGEAPYAEGNDAVTGHIISTTIGGKNGEPKRTISYMAERVVGTGSFGIVFQAKCLETGETVAIKKVLQDRRYKNRELQLMRAMDHPNVISLKHCFFSTTSRDELFLNLVMEYVPETLYRVLKHYSNANHRMPLIYVKLYMYQLFRGLAYIHTVPGVCHRDVKPQNVLVDPLTHQVKLCDFGSAKTLVPGEPNISYICSRYYRAPELIFGATEYTTSIDIWSAGCVLAELLLGQPLFPGESAVDQLVEIIKVLGTPTREEIRCMNPNYTEFRFPQIKAHPWHKVFHKRMPPEAIDLASRLLQYSPSLRCTALDACAHPFFDELREPNARLPNGRPFPPLFNFKHELANSSQELISRLIPEHVRRQATHNFFNTGS
- phosphorylation, in vitro kinase assay, phos-tag SDS-PAGE [1]: The phosphorylated OML4-Flag, nOML4-Flag and cOML4-Flag were detected in the presence of GSK2-GST, while the phosphorylated OML4-Flag, nOML4-Flag and cOML4-Flag were not found in the absence of GSK2-GST
- phosphorylation level, phos-tag SDS-PAGE [2]: Mutations of the two aforementioned Ser residues to Ala reduced the phosphorylation level of OML4, although OML4^S105A,S607A was still phosphorylated by GSK2
- phosphorylation, phos-tag SDS-PAGE [3]: S(105) and S(607) partially influence the phosphorylation of OML4
- phosphorylation, in vitro kinase assay, phos-tag SDS-PAGE [4]: The phosphorylated OML4-Flag, nOML4-Flag and cOML4-Flag were detected in the presence of GSK2-GST, while the phosphorylated OML4-Flag, nOML4-Flag and cOML4-Flag were not found in the absence of GSK2-GST
- phosphorylation, phos-tag SDS-PAGE [5]: S(105) and S(607) partially influence the phosphorylation of OML4
- phosphorylation, in vitro kinase assay, phos-tag SDS-PAGE [6]: The phosphorylated OML4-Flag, nOML4-Flag and cOML4-Flag were detected in the presence of GSK2-GST, while the phosphorylated OML4-Flag, nOML4-Flag and cOML4-Flag were not found in the absence of GSK2-GST

B2: GSK2-cLUC (enzyme)
chain: B1 chain
notes: Co-expressed in N. benthamiana leaves; Order of the pieces follows the printed name; not shown: C-terminal fragment of firefly luciferase (cLUC)
- binding result [7]: binds
- binding result [8]: no binding

B5: recombinant GSK2 (protein)
chain: B1 chain
- phosphopeptides of OML4 found by LC-MS/MS after in vitro kinase reaction [11]: We identified 18 phosphopeptides of OML4, which correspond to 14 phosphosites
- phosphosites of OML4 found by LC-MS/MS after in vitro kinase reaction [11]: We identified 18 phosphopeptides of OML4, which correspond to 14 phosphosites

Now from value to binder:

- binding result [9]: binds
B3: full length GSK2, yeast two-hybrid prey (GSK2 cDNA in pGADT7) (enzyme)
chain: B1 chain
notes: Expressed in yeast cells; The six GSK2 clones found in the first screen are not described further; also called glycogen synthase kinase 2; SHAGGY-like kinase; not shown: fusion partner encoded by vector pGADT7

- binding result [10]: binds
B4: GSK2-nYFP (enzyme)
chain: B1 chain
notes: Transiently expressed in N. benthamiana leaves; Order of the pieces follows the printed name; also called GSK2 fused with the N-terminus of the yellow fluorescent protein; not shown: N-terminus of the yellow fluorescent protein (nYFP, vector pGBW414-nYFP)

- binding result [12]: no binding
B6: cLUC (other, firefly, UniProt P08659 398-550, looked up)
chain: MSGYVNNPEATNALIDKDGWLHSGDIAYWDEDEHFFIVDRLKSLIKYKGYQVAPAELESILLQHPNIFDAGVAGLPDDDAGELPAAVVVLEHGKTMTEKEIVDYVASQVTTAKKLRGGVVFVDEVPKGLTGKLDARKIREILIKAKKGGKSKL
notes: Control of the luciferase complementation imaging assay
